Earlier results in PMC4732575.

Columns and labels:
[1] = target: LDLR (Homo sapiens) (UniProt P01130)
[2] = target: CD36 (Homo sapiens) (UniProt P16671)
Chain of CD36 (Homo sapiens) (P16671 2-472): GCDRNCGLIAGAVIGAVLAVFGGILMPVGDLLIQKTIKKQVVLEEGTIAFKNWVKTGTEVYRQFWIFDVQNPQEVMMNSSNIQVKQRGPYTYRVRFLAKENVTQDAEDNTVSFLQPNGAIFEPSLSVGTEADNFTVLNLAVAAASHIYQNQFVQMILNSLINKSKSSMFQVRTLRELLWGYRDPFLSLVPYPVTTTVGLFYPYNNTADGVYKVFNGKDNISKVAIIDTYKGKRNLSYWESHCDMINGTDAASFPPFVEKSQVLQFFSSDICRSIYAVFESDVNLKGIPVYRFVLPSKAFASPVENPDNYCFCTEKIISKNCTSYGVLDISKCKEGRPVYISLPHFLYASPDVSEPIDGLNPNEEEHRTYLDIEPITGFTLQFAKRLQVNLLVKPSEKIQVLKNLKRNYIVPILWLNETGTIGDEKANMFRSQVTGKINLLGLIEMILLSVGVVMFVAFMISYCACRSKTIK

Chain of PCSK9 (Q8NBP7 153-692): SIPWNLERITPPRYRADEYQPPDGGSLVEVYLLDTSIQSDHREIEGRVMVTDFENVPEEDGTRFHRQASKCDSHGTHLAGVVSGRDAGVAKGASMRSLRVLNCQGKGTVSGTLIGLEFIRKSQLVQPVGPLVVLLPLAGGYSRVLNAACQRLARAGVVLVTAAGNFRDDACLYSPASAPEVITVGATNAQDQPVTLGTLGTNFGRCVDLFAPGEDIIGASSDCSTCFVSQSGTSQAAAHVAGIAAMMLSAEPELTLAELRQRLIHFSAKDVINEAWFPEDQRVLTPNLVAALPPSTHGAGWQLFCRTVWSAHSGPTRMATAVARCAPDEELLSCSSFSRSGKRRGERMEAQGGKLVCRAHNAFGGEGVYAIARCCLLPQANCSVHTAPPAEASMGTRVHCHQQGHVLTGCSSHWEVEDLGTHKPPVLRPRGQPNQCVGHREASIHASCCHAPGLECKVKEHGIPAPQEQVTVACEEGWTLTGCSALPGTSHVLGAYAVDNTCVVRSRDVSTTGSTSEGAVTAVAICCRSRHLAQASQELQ
Chain of LDLR (Homo sapiens) (P01130 22-788): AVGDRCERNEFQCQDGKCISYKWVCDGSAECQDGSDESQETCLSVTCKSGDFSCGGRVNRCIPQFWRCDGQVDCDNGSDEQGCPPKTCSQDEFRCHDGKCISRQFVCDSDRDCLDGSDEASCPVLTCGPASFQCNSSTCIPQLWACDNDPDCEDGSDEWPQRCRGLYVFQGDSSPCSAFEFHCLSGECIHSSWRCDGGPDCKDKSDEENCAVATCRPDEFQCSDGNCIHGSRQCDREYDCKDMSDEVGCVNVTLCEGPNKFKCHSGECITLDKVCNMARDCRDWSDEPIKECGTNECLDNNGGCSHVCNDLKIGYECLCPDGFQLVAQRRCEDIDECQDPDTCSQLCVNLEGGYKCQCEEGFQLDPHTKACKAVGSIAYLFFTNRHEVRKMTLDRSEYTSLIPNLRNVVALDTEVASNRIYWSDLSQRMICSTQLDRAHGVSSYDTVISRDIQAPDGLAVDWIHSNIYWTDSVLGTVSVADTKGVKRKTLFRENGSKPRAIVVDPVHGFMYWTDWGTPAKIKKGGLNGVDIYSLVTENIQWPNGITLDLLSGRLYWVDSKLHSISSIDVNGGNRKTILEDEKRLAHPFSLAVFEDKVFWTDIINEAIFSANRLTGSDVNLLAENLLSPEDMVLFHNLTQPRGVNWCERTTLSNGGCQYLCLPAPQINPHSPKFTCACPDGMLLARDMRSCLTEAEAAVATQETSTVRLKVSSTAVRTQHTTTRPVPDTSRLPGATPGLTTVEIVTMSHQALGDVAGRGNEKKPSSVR

- Kd [1]: 1000 nM
- Kd [2]: 1000 nM
Substance: PCSK9 (from UniProt Q8NBP7)
